Results reported in article PMC2819549.
Where two headings read alike, the source gives them in different places.

What was measured:
[1] = molecular target: human cytochrome P450 3A4 (CYP3A4), wild type, His-tagged (human) (UniProt P08684)
[2] = molecular target: human cytochrome P450 3A4 (CYP3A4), wild type, His-tagged (human) (UniProt P08684); experiment: UV-Vis absorbance
[3] = molecular target: human cytochrome P450 3A4 (CYP3A4), wild type, His-tagged (human) (UniProt P08684); experiment: UV-Vis absorbance; remark: listed apart in the source
[4] = molecular target: human cytochrome P450 3A4 (CYP3A4), wild type, His-tagged (human) (UniProt P08684); experiment: UV-Vis absorbance; remark: listed apart in the source

total reducibility of CYP3A4 by BMR; CYP3A4-ND, with 1-PB [1]: 91% | total reducibility of CYP3A4 by BMR; CYP3A4-ND, with ANF [1]: 79% | total reducibility of CYP3A4 by BMR; proteoliposomes LPS-76, no substrate [1]: 55% | total reducibility of CYP3A4 by BMR; proteoliposomes LPS-76, with ANF [1]: 47% | total reducibility of CYP3A4 by BMR; proteoliposomes LPS-910, no substrate [1]: 83% | total reducibility of CYP3A4 by BMR; proteoliposomes LPS-910, with ANF [1]: 85% | Kd [2]: 0.1 µM | stoichiometry N [3]: 1 | Kd [4]: 0.14 µM | stoichiometry N [4]: 1
Substance: flavin domain of cytochrome P450BM-3 from Bacillus megaterium (BMR) (domain or fragment)
